Results reported in paper doi:10.1101/2024.05.10.593590.

B1: MTRNR2L6 antisense 250 nt (ssRNA)
RNA: GUGUACCAGACCUGGCUUGCUCCGGUCUGAACUCAGACCACGUAGGACUUUAAUCAUUGAACAAAUGAACCCUUGAUAGCAGCUACACCAUUAGGAUGUCCUGAUCCAACAUCGAGGUCGUAAACCCUAUUGUCAAUAUGGACUCUAGAAUAGGAUUGCGCUGUUAUCCCUAGGGUAACUUGUUCCGUUGAUCAAAUUAUUGGGUCAAUAUAUGUAUAGUAAUUCGCUUAAACUUGUUUAGUCUUAGCAC
B2: MTRNR2L6 sense 150 nt (ssRNA)
RNA: GUGCUAAGACUAAACAAGUUUAAGCGAAUUACUAUACAUAUAUUGACCCAAUAAUUUGAUCAACGGAACAAGUUACCCUAGGGAUAACAGCGCAAUCCUAUUCUAGAGUCCAUAUUGACAAUAGGGUUUACGACCUCGAUGUUGGAUCAG
B3: MTRNR2L6 antisense 50 nt (ssRNA)
RNA: GGGGUCAAUAUAUGUAUAGUAAUUCGCUUAAACUUGUUUAGUCUUAGCAC
B4: MTRNR2L6 sense 200 nt (ssRNA)
RNA: GUGCUAAGACUAAACAAGUUUAAGCGAAUUACUAUACAUAUAUUGACCCAAUAAUUUGAUCAACGGAACAAGUUACCCUAGGGAUAACAGCGCAAUCCUAUUCUAGAGUCCAUAUUGACAAUAGGGUUUACGACCUCGAUGUUGGAUCAGGACAUCCUAAUGGUGUAGCUGCUAUCAAGGGUUCAUUUGUUCAAUGAUUA
B5: MTRNR2L6 antisense 75 nt (ssRNA)
RNA: GAACUUGUUCCGUUGAUCAAAUUAUUGGGUCAAUAUAUGUAUAGUAAUUCGCUUAAACUUGUUUAGUCUUAGCAC
B6: MTRNR2L6 antisense 25 nt (ssRNA)
RNA: GCUUAAACUUGUUUAGUCUUAGCAC
B7: MTRNR2L6 antisense 200 nt (ssRNA)
RNA: GAAUCAUUGAACAAAUGAACCCUUGAUAGCAGCUACACCAUUAGGAUGUCCUGAUCCAACAUCGAGGUCGUAAACCCUAUUGUCAAUAUGGACUCUAGAAUAGGAUUGCGCUGUUAUCCCUAGGGUAACUUGUUCCGUUGAUCAAAUUAUUGGGUCAAUAUAUGUAUAGUAAUUCGCUUAAACUUGUUUAGUCUUAGCAC
B8: MTRNR2L6 antisense 100 nt (ssRNA)
RNA: GAGGAUUGCGCUGUUAUCCCUAGGGUAACUUGUUCCGUUGAUCAAAUUAUUGGGUCAAUAUAUGUAUAGUAAUUCGCUUAAACUUGUUUAGUCUUAGCAC
B9: MTRNR2L6 sense 300 nt (ssRNA)
RNA: GUGCUAAGACUAAACAAGUUUAAGCGAAUUACUAUACAUAUAUUGACCCAAUAAUUUGAUCAACGGAACAAGUUACCCUAGGGAUAACAGCGCAAUCCUAUUCUAGAGUCCAUAUUGACAAUAGGGUUUACGACCUCGAUGUUGGAUCAGGACAUCCUAAUGGUGUAGCUGCUAUCAAGGGUUCAUUUGUUCAAUGAUUAAAGUCCUACGUGGUCUGAGUUCAGACCGGAGCAAGCCAGGUCUGGUACAUGUGUAUUUAAGUCCUCCACACCUCCCAUCUAUAAGUCUUUUUAAAACAAA
B10: MTRNR2L6 sense 50 nt (ssRNA)
RNA: GUGCUAAGACUAAACAAGUUUAAGCGAAUUACUAUACAUAUAUUGACCCA
B11: MTRNR2L6 sense 25 nt (ssRNA)
RNA: GUGCUAAGACUAAACAAGUUUAAGC
B12: MTRNR2L6 antisense 150 nt (ssRNA)
RNA: GUGAUCCAACAUCGAGGUCGUAAACCCUAUUGUCAAUAUGGACUCUAGAAUAGGAUUGCGCUGUUAUCCCUAGGGUAACUUGUUCCGUUGAUCAAAUUAUUGGGUCAAUAUAUGUAUAGUAAUUCGCUUAAACUUGUUUAGUCUUAGCAC
B13: MTRNR2L6 antisense 300 nt (ssRNA)
RNA: GUUGUUUUAAAAAGACUUAUAGAUGGGAGGUGUGGAGGACUUAAAUACACAUGUACCAGACCUGGCUUGCUCCGGUCUGAACUCAGACCACGUAGGACUUUAAUCAUUGAACAAAUGAACCCUUGAUAGCAGCUACACCAUUAGGAUGUCCUGAUCCAACAUCGAGGUCGUAAACCCUAUUGUCAAUAUGGACUCUAGAAUAGGAUUGCGCUGUUAUCCCUAGGGUAACUUGUUCCGUUGAUCAAAUUAUUGGGUCAAUAUAUGUAUAGUAAUUCGCUUAAACUUGUUUAGUCUUAGCAC
B14: MTRNR2L6 sense 100 nt (ssRNA)
RNA: GUGCUAAGACUAAACAAGUUUAAGCGAAUUACUAUACAUAUAUUGACCCAAUAAUUUGAUCAACGGAACAAGUUACCCUAGGGAUAACAGCGCAAUCCUA
B15: MTRNR2L6 sense 75 nt (ssRNA)
RNA: GUGCUAAGACUAAACAAGUUUAAGCGAAUUACUAUACAUAUAUUGACCCAAUAAUUUGAUCAACGGAACAAGUUA
B16: MTRNR2L6 sense 250 nt (ssRNA)
RNA: GUGCUAAGACUAAACAAGUUUAAGCGAAUUACUAUACAUAUAUUGACCCAAUAAUUUGAUCAACGGAACAAGUUACCCUAGGGAUAACAGCGCAAUCCUAUUCUAGAGUCCAUAUUGACAAUAGGGUUUACGACCUCGAUGUUGGAUCAGGACAUCCUAAUGGUGUAGCUGCUAUCAAGGGUUCAUUUGUUCAAUGAUUAAAGUCCUACGUGGUCUGAGUUCAGACCGGAGCAAGCCAGGUCUGGUACAU
B17: MTRNR2L6 (structured_RNA)
RNA: GCUAUACAUAUAUUGACCCAAUAAUUUGAUCAACGGAACAAGUUACCCUAGGGAUAACAGCGCAAUCCUAUUCUAGAGUCCAUAUUGACAAUAGGGUUUACGACCUCGAUGUUGGAUCAGGACAUCCUAAUGGUGUAGC
B18: Antisense MTRNR2L6 (structured_RNA)
RNA: GGCUACACCAUUAGGAUGUCCUGAUCCAACAUCGAGGUCGUAAACCCUAUUGUCAAUAUGGACUCUAGAAUAGGAUUGCGCUGUUAUCCCUAGGGUAACUUGUUCCGUUGAUCAAAUUAUUGGGUCAAUAUAUGUAUAG
B19: Antisense Syncrip (structured_RNA)
RNA: GAAGCUCACGCCGCUGGCAGCAAACCCGAUCCAGUUCCACUCGCCUCCGAGCGCGCUCCCGGUGCGCGCGCGCGCCCCCGCGUGACCCCCCCUUCCCUUCCCUUCCCUUCCCUCCCCUCCCUC
B20: Syncrip (structured_RNA)
RNA: GAGGGAGGGGAGGGAAGGGAAGGGAAGGGAAGGGGGGGUCACGCGGGGGCGCGCGCGCGCACCGGGAGCGCGCUCGGAGGCGAGUGGAACUGGAUCGGGUUUGCUGCCAGCGGCGUGAGCUUC
B21: Syncrip G-quad (structured_RNA)
RNA: GAGGGAGGGGAGGGAAGGGAAGGGAAGGGAAGGGGGGGAAACUUC

The binders below were run against U-CTD (hnRNP U RBD) (human, UniProt Q00839 673-825) (assay: fluorescence anisotropy).
Sequence of U-CTD (hnRNP U RBD) (Q00839 673-825): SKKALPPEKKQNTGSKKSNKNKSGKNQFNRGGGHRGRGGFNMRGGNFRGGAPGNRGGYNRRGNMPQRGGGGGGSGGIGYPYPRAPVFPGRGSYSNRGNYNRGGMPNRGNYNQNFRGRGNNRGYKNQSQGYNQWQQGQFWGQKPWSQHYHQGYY

Binder	apparent K (half saturation)
B1	110 ± 10 nM
B2	130 ± 10 nM
B3	480 ± 40 nM
B4	210 ± 20 nM
B5	410 ± 30 nM
B6	6000 ± 300 nM
B7	230 ± 10 nM
B8	280 ± 20 nM
B9	110 ± 10 nM
B10	1000 ± 100 nM
B11	4900 ± 700 nM
B12	190 ± 10 nM
B13	110 ± 10 nM
B14	150 ± 20 nM
B15	320 ± 30 nM
B16	100 ± 10 nM

These binders were tested against U(702-809) (human, UniProt Q00839 702-809) (assay: fluorescence anisotropy).
Sequence of U(702-809) (Q00839 702-809): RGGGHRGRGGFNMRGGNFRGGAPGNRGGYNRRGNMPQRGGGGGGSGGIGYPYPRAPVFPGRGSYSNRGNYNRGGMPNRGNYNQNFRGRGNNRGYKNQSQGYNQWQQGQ

Binder	Kd
B17	710 ± 10 nM
B18	810 ± 60 nM
B19	1600 ± 100 nM
B20	140 ± 50 nM

Each binder was assayed against U(702-825) (human, UniProt Q00839) (assay: fluorescence anisotropy).
Sequence of U(702-825) (Q00839 702-825): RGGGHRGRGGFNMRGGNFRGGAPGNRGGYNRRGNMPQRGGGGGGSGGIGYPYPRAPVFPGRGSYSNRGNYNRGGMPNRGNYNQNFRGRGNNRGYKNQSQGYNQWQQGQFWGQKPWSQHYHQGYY

Binder	Kd
B17	220 ± 10 nM
B18	450 ± 10 nM
B19	570 ± 10 nM
B20	70 ± 19 nM

The binders below were run against U(702-777) (human, UniProt Q00839 702-777) (assay: fluorescence anisotropy).
Sequence of U(702-777) (Q00839 702-777): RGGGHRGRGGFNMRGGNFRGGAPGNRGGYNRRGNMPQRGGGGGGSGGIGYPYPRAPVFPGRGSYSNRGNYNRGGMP

Binder	Kd
B17	4200 ± 500 nM
B18	3900 ± 900 nM
B19	14000 ± 2000 nM
B20	450 ± 160 nM

Target: T1, RGG1 (minimal first RGG/RG motif) (human, UniProt Q00839 702-745)
T1 chain: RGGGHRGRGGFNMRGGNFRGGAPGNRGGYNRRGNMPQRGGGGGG
Assay: fluorescence anisotropy

Binder	Kd
B21	~1000 nM
B20	~1000 nM

The binders below were run against U(702-793) (human, UniProt Q00839 702-793) (assay: fluorescence anisotropy).
Sequence of U(702-793) (Q00839 702-793): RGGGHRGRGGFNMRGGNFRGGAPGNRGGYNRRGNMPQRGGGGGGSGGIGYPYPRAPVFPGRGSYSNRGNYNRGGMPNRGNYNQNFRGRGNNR

Binder	Kd
B17	1100 ± 100 nM
B18	1200 ± 100 nM
B19	3000 ± 200 nM
B20	180 ± 50 nM

What follows are binders tested against U(702-761) (human, UniProt Q00839 702-761) (assay: fluorescence anisotropy).

Binder	Kd
B20	1100 ± 400 nM

Target: T2, U(702-745) (human, UniProt Q00839 702-745)
T2 chain: T1 chain
Assay: fluorescence anisotropy

Binder	Kd
B20	910 ± 150 nM
